Columns and labels:
[1] = target: human somatostatin receptor 2 (SSTR2), PRESTO-Tango construct (human) (UniProt P30874)
[2] = target: human somatostatin receptor 4 (SSTR4), PRESTO-Tango construct (human) (UniProt P31391)
[3] = target: human somatostatin receptor 1 (SSTR1), PRESTO-Tango construct (human) (UniProt P30872)
human somatostatin receptor 1 (SSTR1), PRESTO-Tango construct (human), sequence (P30872 whole entry): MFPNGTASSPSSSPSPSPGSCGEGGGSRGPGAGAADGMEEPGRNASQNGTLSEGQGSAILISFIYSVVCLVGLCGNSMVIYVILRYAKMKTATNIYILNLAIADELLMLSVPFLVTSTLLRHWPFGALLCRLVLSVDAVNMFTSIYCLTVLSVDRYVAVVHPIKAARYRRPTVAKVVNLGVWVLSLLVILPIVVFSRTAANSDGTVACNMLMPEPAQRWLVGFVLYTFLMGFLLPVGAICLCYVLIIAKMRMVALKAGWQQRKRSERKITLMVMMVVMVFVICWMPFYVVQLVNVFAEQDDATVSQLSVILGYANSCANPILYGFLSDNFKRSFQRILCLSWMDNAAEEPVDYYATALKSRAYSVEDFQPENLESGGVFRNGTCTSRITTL

human somatostatin receptor 2 (SSTR2), PRESTO-Tango construct (human), sequence (P30874 whole entry): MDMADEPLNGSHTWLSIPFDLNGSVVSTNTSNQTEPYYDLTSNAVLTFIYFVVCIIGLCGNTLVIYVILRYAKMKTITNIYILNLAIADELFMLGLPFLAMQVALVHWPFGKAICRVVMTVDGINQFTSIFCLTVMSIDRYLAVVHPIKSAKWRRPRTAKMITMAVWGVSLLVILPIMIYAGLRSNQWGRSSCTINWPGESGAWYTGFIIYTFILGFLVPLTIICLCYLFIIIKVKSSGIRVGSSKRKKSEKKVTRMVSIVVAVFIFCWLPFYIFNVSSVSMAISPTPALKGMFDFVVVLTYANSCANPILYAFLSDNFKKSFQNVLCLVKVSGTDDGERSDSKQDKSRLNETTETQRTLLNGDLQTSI
human somatostatin receptor 4 (SSTR4), PRESTO-Tango construct (human), sequence (P31391 whole entry): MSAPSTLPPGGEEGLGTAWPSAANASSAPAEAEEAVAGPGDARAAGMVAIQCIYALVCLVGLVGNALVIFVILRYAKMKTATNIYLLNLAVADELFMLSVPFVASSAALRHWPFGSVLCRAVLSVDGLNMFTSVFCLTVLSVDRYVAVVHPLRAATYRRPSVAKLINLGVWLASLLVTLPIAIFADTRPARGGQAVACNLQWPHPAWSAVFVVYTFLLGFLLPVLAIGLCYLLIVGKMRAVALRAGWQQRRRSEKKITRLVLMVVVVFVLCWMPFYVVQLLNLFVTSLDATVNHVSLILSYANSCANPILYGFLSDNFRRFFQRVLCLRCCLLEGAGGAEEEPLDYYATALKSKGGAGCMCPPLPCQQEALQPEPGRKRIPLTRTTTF

Substance | PRESTO-Tango β-arrestin recruitment assay (HTLA cells), EC50 [1] | PRESTO-Tango β-arrestin recruitment assay (HTLA cells), EC50 [2] | PRESTO-Tango β-arrestin recruitment assay (HTLA cells), EC50 [3]
consomatin Fj2 (peptide) | 200 nM | 2000 nM | –
consomatin Pr1 (peptide) | 41 nM | – | 130 nM

Reference: publication PMC12663243 (Scientific Reports, 2025)
